Laboratory results reported in the nanobody polyreactivity screen of Harvey et al. (2022).

Experiment: yeast display, Sf9 membrane polyspecificity reagent, FACS + sequencing; frameworks hold sequencing errors
Procedure, shortened: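 Nanobodies came from a synthetic yeast display library in Saccharomyces cerevisiae BJ5465, induced with galactose for 36–48 hours and stained for 1 hour at 4 °C with 10% biotinylated, detergent-solubilized Sf9 membrane reagent. Cells were enriched on streptavidin microbeads and then FACS-sorted, with low and high (top ~1%) gates set on anti-HA fluorescence for expression and streptavidin fluorescence for reagent binding. Each polyreactivity label reflects the gate a clone came from. Genes were amplified by colony PCR, sequenced by MiSeq 2 × 250 and filtered by CDR length.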

Row | Sequence | polyreactivity (PSR sort gate)
1 | QDQLVESGGGLVQAGGSLRLSCAATGRIFVYYAMGWSRQAPGKERELVATISSGGSTYYADSVKGRFTISRDNAKNTVYLQMNSLKPDDTAVYYCAADNVNLYLAYYYKGDYWGQGTQVTVSS | low polyreactivity
2 | QVQLVESGGGLVQAGGSLRISCAASGSIFRWNAMGWYRQAPGKERELVAAINWSGGSTYYADSVKGRFTISRDNAKNTVYLQMNSLKPEDTAVYYCAVDYWSGITWVEYWGQGTQVTVSS | high polyreactivity
3 | QVQLVETGGGLVQAGGSLRLSCAASGRIFGPNSKGWYRQAPGKEREFVASIRYSGGSTYYADSVKGRFTISRDYAKNTVYLQMHSLKPEDTAVYYCAARTVTLSYLYYYWGQGTHVTVSS | high polyreactivity
4 | QVQLVESGGGLVQAGGSLRLSCAASGITFRSYDMGWYRQAPGTERELVAAISSTGRTYYADSVKGRFTISRDNAKNTVYLQMNSLKPEDTAVYYCARARSHYAYYWWNAGTGLDYWGQGTQVTVSS | high polyreactivity
5 | QVQLVESGGGLVQAGGSLRLSCAASGSTFVLYAMGWYRQAPGKERELVAAIDSSGGSTYYADSVKGRFTISRDNAKNTVYLQMNSLKPEDTAVYYCAKAGRYANLPYGYWGQGTQVTVSS | high polyreactivity
6 | QVQLVESGGGLVQAGGSLRLSCAASGFIIDANTMGWYRQAPGKERELVAAINESGGSTYYADSVKGRFTISRDNAKNTVYLQMNSLKPEDTAVYYCAADPTWDYGWSGYPYYYYWGQGTQVTVSS | high polyreactivity
7 | QVQLVESGGGLVQAGGSLRLSCAASGSIFPYNAMGWYRQAPGKERELVATISSGGSTNYADSVKGRFTISRDNAKNTVYLQMNSLKPEDTAVYDCAADVIVFYYAPNYWGDIGYGYWGQGTQVTVSS | low polyreactivity
8 | QVQLVESGGGLVQAGVSLRLSCAASGFIFSFNAMGWYRQAPGKERELVAAISRSGGSTRYADSVKGRFTISRDNAKNTVYLQMNCLKPEDTAVYYCNARSPYYSYLLHAYRLFDYWGQGTQVTVSS | high polyreactivity
9 | QVQLVESGGGLVQAGGSLRLSCAASGRTFRVYAMGWYRQAPGKERELVAGIRSRGGSTYYADSVKGRFTISRDYAKNTVYLQMNSLKPEDTAVYYCAAGYYLPQAIYEYWGLGTQVTVSS | high polyreactivity
10 | QVQLVESGGGLVQAGGSLRLSCAASGFTFYGYGMGWYRPAPGKERELVAVITSGGSTKYADSVKGRFTISRDNAKNTVYLQMNSLKPEDTAVYYCNVVGGRYLYSAYDYWGQGTQVTVSS | low polyreactivity
11 | QVQLVESGGGLVQAGGSLRLSCAASGRIFKVYAMGWYRQAPGKERELVAAISSRGGSTYYADSVKGRFTISRDNAKNTVYLQMNSLKPEDTAVYYCAALVTWLHPKGDYWGQGTQVTVSS | high polyreactivity
12 | QVQLVESGGGLVQAGGSLRLSCADSGNTIYGYAMGWNRQAPGKERELVASITLSGDSTYYADSVKGRFTISRDNAKNTVFLQMNRLKPEDTSVYYCSGVYTYPLGYYHYTYDYWGQGSQVTVSS | low polyreactivity
13 | QVQLVESGGGLVQAGGSLRLSCAASGFTFGDYAMGWYRQAPGKERELVAAITSTGGSTYYADSVKGRFTISRDNEKHSVYLQMNCLKPEDTAVYYCAKPDYYRMGYWGQGTQVTVCS | low polyreactivity
14 | QVQLVESGGGLVQAGGSLRLSCAASGRIVSGYVMGWYRQAPGKERELVAVISRSGGSTYYADSVKGRFTISRDNAKNTVYLQMNSLKPEDTAVYYCDAKHIDGSRGYDYWGQGTQVTVSS | low polyreactivity
15 | QVQLVESGGGLVQAGGSLRLSCAASGRIFSIYAMGWYRQAPGKERELVADITWTGGGTYYADSVKGRFTISRDNAKNTVYLQMNSLKPEDTAVYYCAADLYRKWWYDYWGQGTQVTVSS | high polyreactivity
16 | QVQLVESGGGLVQAGGSLRLSCAASGRIFGQYAMGWYRQAPGKERELVAAISWRGGTTYYADSVKGRITISRDKAKNTVYLQMNSLKPVDTAVYYCNADVWVYPYDYWGQGTQVTVSS | low polyreactivity
17 | QVQLVESGGGLVQEGGSLRLSCAASGNTLRVYAMGRYRQAPGTERELVAAISSSGGSTYYADSVKGRFTISRDNAKNTVYLQMYSLKPEDTAVYYCAKDNGPWFAYDYWGQGTQVTVSS | low polyreactivity
18 | QVQLVESGVGLVQAGGSLRLSCAASGFIFHRYAMGWYRQAPGKERELVAGITSSGGSTYYADSVKGRFTISRDNAKNTVYLQMNSLKPEDTAVYYCNADSWLYRFFGYDYWGQGTQVTVSS | low polyreactivity
19 | QVQLVESGGGLVQAGRSLRLSCAASGRTFARYAMGGYRQAPGKERELVAAINSGGSTNYADSVKGRFTISRDNAKNTDYLQMNSLKPEDTAVYYCAADSYWKWYIAYPYYWGQGTQVTVSS | high polyreactivity
20 | QVQLVDSGGGLVQAGGSLRLSCAASGLTFSKYAMGWYRQAPGKERELVSAISRSGGSTYYADSVKGRFTISRDNAKNTVYLQMNSLKPEDTAVYYCAARRLVGAERPGYDYWGQGTQVTVSS | high polyreactivity
21 | QDQLVESGGGLDQAGGSLRLSCAASGGTFKVNAMGWYRQAPGKEREFVAAISSGGSTYYADSVKGRFTISRDNAKNTVYLQINSLKPEDTAVYYFAASGAYDEAYGEAFYYWGQGTQVIVSS | low polyreactivity
22 | QVQLVEAGGGLVQAGGSLRLSCAASGFTISSNAMGWYRQAPGKERELVAAISFNSTSTYYADSVKGRFTISRDNAKNSVYLQMNSLKPEDTAVYYCSADVPRVQSEPEYDYWGQGTQVTVSS | low polyreactivity

Row | Sequence | polyreactivity (PSR sort gate)
23 | QVQLVQSCGGLVQAGGSLRLSCATSGFTFPLYAMGWYRQAPGKERELVAAISSGSSTYYADSVKGRFTISRDNAKNTVYLQMNSLKPEDTAVYYCAAQKRGSPGYRRDYWGQGTQVTVSS | high polyreactivity
24 | QVQLVESGGGLVQAGCSGSLSCAASGRIFQRNSMGWYRQAPGKEREFVAAITKSGGGTYADSVKGRFTISRDNAKNTVYLQMNSLKPEDTAVYYCNVVPVWRPYSLINWQKHFGYWGQGTQVTVSS | high polyreactivity
25 | QVQLVESGGGLVQAGGSLRLSCAASGRTSGFNTMGWYRPAPGKEREMVAAISFSGGSTYYADSVKGRFTISRDNAKNTVYLQMNSLKPEDTAVYYCNALYRYLYRSGDYWGQGTQVTVSS | low polyreactivity
26 | QVQLVESGGGLVQAGGSLRLSCAASGRTLDWNAMGWYRQAPGKERELVAAISWSGDSTYYADSVKGRFTISRDNAKNTVYLQMNSLKPEDTAVYYCDARYGRSWGRGYGYWGQGTQVTVSS | low polyreactivity
27 | HVPLVESGGGLVQAGGSLRLSCAASGSTFSVNVLGWYRLAAGKERELVAAITQAGGSTYYADSVKGRFSISRDTAKNTVYLQMNSLKPEDTAGYYCAVEKWSVYSFFLEGADYWGQGTQLTVSS | low polyreactivity
28 | QVQLVESGGGLVQAGGSLRLTCAASGFTFGEYAMGWYRQAPGKERELVAVITSGGGRTYYADSVKGRFTISRDNAKNNVYLEMNSLNPEDTAAYYCAAQPKPQLERKDDYWGQGTQVTVSS | high polyreactivity
29 | QVQLVESGGGLVQAGGSLRLSCAASGRILYWYALGWYRQAPGKERELVAAISRSGGSTSYADSVKGRFTISRDNAKNTVYLQMNSLKPEDTAVYYCAVDRFWRPVRSGTTYDYWGQGTQVTVSS | low polyreactivity
30 | QVQLVESGGGLVQAGGSLRLSCAASVSTIGTYAMGWYRQAPGKERELVAAISTGGSTYYADSVKGRFTISRANAKNTVHLQMNSLKPEDTAVYYCAALADYVRRASDYWGQGTQVTVSS | low polyreactivity
31 | QVQREESGGGLVQAGGSLRLSCVASGSTFRYYAMGWYRQSPGTERELVAAITWRGTSTYYADSVKGRFTISRDNAKNTVYLQMNSLKPEDTAVYYCNAAGYWPATGDYWGQGTQVTVSW | high polyreactivity
32 | QVQIVESGGGLVHAGGSLRLSCAASGRIFPDYAMGWYRQAPGKERELVATISYSGGNTNYADSVKGRFTISRDNAKNTVYLQMNSLKPEDTAVYYCNTDWYLPRYVLLGYFSGTEDYWGQGTQVTVSS | low polyreactivity
33 | QVQLVESGGGLVQAGGSLRLSCAASGITFERYTMGWYRQAPGKERELVAAIRGSGGTYYADSVKGRFTISRDNAKNTVYLQMNSLKPEDTAVYYCAARYSYRYGVVYGTLHGYWGQGTQVTVSS | high polyreactivity
34 | QVQLVESGGGLVQAGGSLRLSCAASGIIFGSNTMGWYRQAPGKERELVAAITSSDGSTHYADSVKGRFTISRDNAKNTVYLQMNTLKPEDTAVYYCAARKVTYGHSYGYDYWGQGTQVTVSS | low polyreactivity
35 | QVQLVESGGGLFQAGGSLRLSCAASGTFYIYAMGWYRQAPGKERELVAGISFSGGSTYYADSVKGRFTISRDNAKNTVYLQMNSLKPEDTAVYYCAAELYVLPYDYWGQGTQVTVSS | high polyreactivity
36 | QDQLVESGGGLVQAGGSLRISCDASGTTFQTYVMGWYRQAPGKERELVAAISSGGSTNYADSVKGRFTISRDNAKNTVYLQMNSLKPEDTAVYYCAKRWPYFRRGKDGYWGQGTQVTVSS | low polyreactivity
37 | QVQLVESGGGLVQAGGSLRLSCSASGFIFRYNAMGWYRQAPGKEREFVAAISQGGASTYYADSVKGRFTISRDNAKNTVYLQMNSLKPEDTAVYYCNAVVDTSKYTDYYWGQGTQVTVSS | low polyreactivity
38 | QVQLVESGGGLVQAGGSLRLSCAAYGRIFLLYAMGWYRQAPGKERELVAGISIGGSTNYADSVKGRFTISRDNAKNTVYVQMNSLKPEDTAVYYCNAKRYFASRKNGYYYWGQGTQVTVSS | high polyreactivity
39 | QVQLVESGVGIVQAGGSLRLICAASGSTFTIYAMGWYRQAPGKERELVAAITWNGGSTYYADSVKGRFTISRDNAKKTVYLQMNSLKPEDTAVYYCAAKFRYQYVRVAREYYYWGQGTQVTVSS | high polyreactivity
40 | QVQLEESRGGLVQAGGSLRLSYPASGRTYVTYAMGWYRQAPGKERELVAAITSGGSTNYADSVKGRFTISRDNAKNTVYLQMNSLKPEDTAVYYCAKAYLWYKGIFDYWGQGTQVTVSS | low polyreactivity
41 | QVQLVESGGGLVQAGGSLRISCAASGLTFWAYAMGWYRQAPGKEREFLAAISWSGDSTYYADSVKGRFTISRDNAKNTVYLQMNSLKPEDTAVYYCAAEWYYVYIAPYDYWGLGTQVTVSS | low polyreactivity
42 | QVKLVESGGGLVQAGGSLRLSCAASGRTFGYNAMGWYRQAPGKERELVASINWSGGRTYYADSVKGRFTISRDNAKNTVYLQMYSLKPEDTAVYYCAKGFTRVQQQYQYLFGYWGQGTQVTVSS | low polyreactivity
43 | QVQLVESGGGLVQAGGSLRLSCAASGLIFSSNAMGWARQAPGKEREWVAAITSGGSTNYADSVKGRFTISRDNAHNTVYLQMNSLKPEDTAVYYCNAVSPHYFGGSYDYWGQGTQVTVSS | low polyreactivity
